We go through 1 protein from US20140045211.

Series [1] has as its target 2D6 ubiquitin-CCL7 fusion.
The target of series [2] is 3D3 ubiquitin-CCL7 fusion (ubiquitin I3L, V17L, I23V).

B1: Usp2-cc (catalytic core of the mouse deubiquitylating enzyme Usp2) (protein)
chain: SKSAQGLAGLRNLGNTCFMNSILQCLSNTRELRDYCLQRLYMRDLGHTSSAHTALMEEFAKLIQTIWTSSPNDVVSPSEFKTQIQRYAPRFMGYNQQDAQEFLRFLLDGLHNEVNRVAARPKASPETLDHLPDEEKGRQMWRKYLEREDSRIGDLFVGQLKSSLTCTDCGYCSTVFDPFWDLSLPIAKRGYPEVTLMDCMRLFTKEDILDGDEKPTCCRCRARKRCIKKFSVQRFPKILVLHLKRFSESRIRTSKLTTFVNFPLRDLDLREFASENTNHAVYNLYAVSNHSGTTMGGHYTAYCRSPVTGEWHTFNDSSVTPMSSSQVRTSDAYLLFYELASPPSRM
Take B1: the “Usp2-cc cleavage time course (SDS-PAGE)” value is “the 2D6 fusion (2D6-CCL7) was only partially cleavable, with large amounts of fusion remaining uncleaved after 12 hr” in series [1]; 3D3 ubiquitin (3D3-CCL7) was recognized and cleaved with efficiency similar to that observed for wildtype ubiquitin (WT-CCL7) in series [2].
